Positions count from the first letter of the chain named. In names and notes the source's numbering stands.
T1: PSAF subunit of Chlamydomonas reinhardtii Photosystem I (Chlamydomonas reinhardtii, UniProt P12356 63-227)
T1 construct: PSAF, Photosystem I subunit, Chlamydomonas reinhardtii; the transit peptide segment is included in the numbering of the PDB data; numbers count on: the mature protein; Stood in the experiment as a subunit of the PSI complex m2
T1 sequence (looked up): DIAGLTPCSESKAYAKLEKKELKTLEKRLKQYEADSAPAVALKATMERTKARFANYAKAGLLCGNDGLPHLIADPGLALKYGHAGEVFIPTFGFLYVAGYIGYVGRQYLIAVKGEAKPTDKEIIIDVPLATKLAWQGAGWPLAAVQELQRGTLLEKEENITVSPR

B1: Chlamydomonas reinhardtii cytochrome c6 E69Q/E70Q (natural protein)
chain: ADLALGAQVFNGNCAACHMGGRNSVMPEKTLDKAALEQYLDGGFKVESIIYQVENGKGAMPAWADRLSQQEIQAVAEYVFKQATDAAWKY
modifications: heme group (heme protein)
notes: cytochrome c6, Chlamydomonas reinhardtii; also called Cyt c6 (E69Q/E70Q); E69Q/E70Q double mutant; source: E. coli BL21, co-transformed with pEC86 (Ccm genes), purified (DEAE anion exchange, size exclusion)
B2: Chlamydomonas reinhardtii cytochrome c6 E71Q (natural protein)
chain: B1 chain with Q69E, Q70E, E71Q
modifications: heme group (heme protein)
notes: cytochrome c6, Chlamydomonas reinhardtii; also called Cyt c6 (E71Q); source: E. coli BL21, co-transformed with pEC86 (Ccm genes), purified (DEAE anion exchange, size exclusion)

Molecular target: T1, PSAF subunit of Chlamydomonas …
Test: cross-linking; non-activated Cyt c6 (4 μM) and PSI (40 μg Chl/mL) in 30 mM HEPES/KOH pH 7.5, 1 mM ascorbate, 0.1 mM DAD, 3 mM MgCl2, 0.03% α-DDM with 5 mM EDC and 10 mM sulfo-NHS, 45 min, room temperature, dark; quenched with 50 mM Tris pH 8.0; SDS-PAGE and Western blot with anti-Cyt c6
Conditions: both partners purified

Binder	binding result
B1	binds
B2	binds

— publication PMC13036084, “Cryo-EM structure of Chlamydomonas reinhardtii Photosystem I complexed with cytochrome c6” (Nature Communications, 2026)
